Test [1] addresses Catechol 1,2-dioxygenase from Pseudomonas stutzeri GOM2 (Pseudomonas stutzeri GOM2). The test can be described thus: native gel or EMSA; 10% acrylamide gel under non-denaturing conditions, no SDS or reducing agents; the dimer and trimer samples from SEC mixed and loaded together.
Test [2] has the same target. The test can be described thus: SEC; HiLoad 26/60 Superdex 200, 50 mM glycine-NaOH pH 8.5, no NaCl; 500 uL of protein at 20 mg/mL; mass from calibration with standard proteins.
The target is the same in test [3]. The test can be described thus: SEC + other: dynamic light scattering; 50 mM glycine-NaOH pH 8.5 with 700 mM NaCl (seawater salinity); SEC on Superdex 200; DLS at 1 mg/mL, 40 °C.

Values joined by “and” are separate entries in the source; they are usually repeats but may differ in a detail not shown here. Equal values may be shown once.

As for “Catechol 1,2-dioxygenase from Pseudomonas stutzeri GOM2 (enzyme)”, the stoichiometry N is 2 and 3 in test [1]; 3 in test [2]; 2 in test [3].

The record behind these values is paper PMC7287156.
